The source of these data is patent US20160264649A1.

Common to all, as to assay: cell-based or functional assay
For assay [1], the target named is HIV-1 MGRM-C-002 Env on pseudovirus (HIV-1).
Assay [2] addresses HIV-1 93UG077 Env (HIV-1).
The target of assay [3] is HIV-1 92UG001 Env (HIV-1).
The target of assay [4] is HIV-1 MGRM-D-001 Env (HIV-1).
Assay [5] addresses HIV-1 MGRM-F1-008 Env (HIV-1).
Assay [6] deals with HIV-1 MGRM-C-001 Env on pseudovirus (HIV-1).
The target in another assay is HIV-1 CMU02 Env (HIV-1).
Assay [7] concerns the target HIV-1 MGRM-F1-022 Env (HIV-1).
Assay [8] has as its target HIV-1 MGRM-D-004 Env (HIV-1).
Assay [9] concerns the target HIV-1 MGRM-AE-002 Env (HIV-1).
The target in assay [10] is HIV-1 MGRM-F1-016 Env (HIV-1).
For assay [11], the target named is HIV-1 MGRM-C-020 Env on pseudovirus (HIV-1).
The target of assay [12] is HIV-1 NL43 Env on pseudovirus (HIV-1).
Assay [13] has as its target HIV-1 MGRM-Chronic-B-008 Env on pseudovirus (HIV-1).
For assay [14], the target named is HIV-1 QH0692.42 (Acute) Env on pseudovirus (HIV-1).
Assay [15] has as its target HIV-1 MGRM-D-003 Env (HIV-1).
For assay [16], the target named is HIV-1 MGRM-Chronic-B-023 Env on pseudovirus (HIV-1).
Assay [17] concerns the target HIV-1 TRO.11 (Acute) Env on pseudovirus (HIV-1).
The target in assay [18] is HIV-1 MGRM-C-005 Env on pseudovirus (HIV-1).
In assay [19] the target is HIV-1 MGRM-F1-013 Env (HIV-1).

As a reminder, the IC50 is the concentration that gives 50% inhibition. With b12 (antibody), the IC50 was greater than 50 µg/mL in assay [1]; greater than 50 µg/mL in [6]; greater than 50 µg/mL in assay [11]; 0.17 µg/mL in assay [12]; 2.82 µg/mL in [13]; 0.73 µg/mL in assay [14]. Also, the figures for the half-maximal inhibitory concentration (IC50) in assay [16], in assay [17] and in assay [18] were greater than 50 µg/mL, greater than 50 µg/mL and 2.66 µg/mL, respectively. Also, the neutralization IC50 in assay [2] turned out to be 41.1 µg/mL; with HIV-1 CMU02 Env (HIV-1) it was 4.25 µg/mL. The neutralization IC90 in assay [2] was greater than 50 µg/mL; in the assay with HIV-1 CMU02 Env (HIV-1) it was 34.2 µg/mL. In addition, the IC50 (µg/ml), pseudovirus neutralization in assay [3] was 1.01 µg/mL; in assay [4], greater than 50 µg/mL; with HIV-1 CMU02 Env (HIV-1), 29.3 µg/mL; in assay [8], greater than 50 µg/mL; in [9], 17.1 µg/mL; in [15], greater than 50 µg/mL. Besides, the IC50 (pseudovirus neutralization) in [5], in assay [7], in [10] and in [19] was greater than 50 µg/mL throughout.

For 2G12 (antibody), the IC50 was greater than 50 µg/mL in assay [1]; 2.93 µg/mL in assay [6]; 18.6 µg/mL in assay [11]; 0.49 µg/mL in assay [12]; 0.55 µg/mL in assay [13]; 4.39 µg/mL in [14]. The IC50 in assay [16] was 0.16 µg/mL; in assay [17], 0.29 µg/mL; in assay [18], greater than 50 µg/mL. Further, the neutralization IC50 (in assay [2]; in the assay with HIV-1 CMU02 Env (HIV-1)) was greater than 50 µg/mL in each case. Moreover, the neutralization IC90 (in [2]; with HIV-1 CMU02 Env (HIV-1)) was greater than 50 µg/mL throughout. Also, the IC50 (µg/ml), pseudovirus neutralization (in assay [3]; in [4]; with HIV-1 CMU02 Env (HIV-1); in assay [8]; in [9]; in assay [15]) was greater than 50 µg/mL in each case. The IC50 (pseudovirus neutralization) in [5], in assay [7], in assay [10] and in assay [19] was greater than 50 µg/mL in each case.

In the case of 2F5 (antibody), the IC50 is 44.7 µg/mL in [1]; greater than 50 µg/mL in [6]; greater than 50 µg/mL in assay [11]; 2.02 µg/mL in assay [12]; greater than 50 µg/mL in assay [13]; 5.42 µg/mL in [14]. Further, the IC50 in [16] is 0.1 µg/mL; in assay [17], greater than 50 µg/mL; in assay [18], greater than 50 µg/mL. The values for the neutralization IC50 (in [2]; in the assay with HIV-1 CMU02 Env (HIV-1)) were 4.45 µg/mL and 0.38 µg/mL, respectively. The neutralization IC90 in assay [2] was found to be 33.4 µg/mL; with HIV-1 CMU02 Env (HIV-1), 12.2 µg/mL. Besides, the IC50 (µg/ml), pseudovirus neutralization in assay [3] was 13 µg/mL; in assay [4] it was 0.63 µg/mL; with HIV-1 CMU02 Env (HIV-1) it was 0.6 µg/mL; in [8], 2.3 µg/mL; in assay [9], 0.31 µg/mL; in assay [15] it was greater than 50 µg/mL. Moreover, the IC50 (pseudovirus neutralization) stood at 1.61 µg/mL in assay [5], 1.26 µg/mL in assay [7], 21.5 µg/mL in assay [10] and 4.57 µg/mL in assay [19].

For 1495_C14 (PGC14) (antibody), the IC50 was greater than 50 µg/mL in assay [1]; greater than 50 µg/mL in assay [6]; greater than 50 µg/mL in [11]; 40 µg/mL in [12]; greater than 50 µg/mL in assay [13]; greater than 50 µg/mL in assay [14]. The IC50 in [16], in assay [17] and in [18] was greater than 50 µg/mL each time. The neutralization IC50 (in assay [2]; in the assay with HIV-1 CMU02 Env (HIV-1)) was greater than 50 µg/mL each time. Also, the IC50 (µg/ml), pseudovirus neutralization (in assay [3]; in assay [4]; with HIV-1 CMU02 Env (HIV-1); in assay [8]; in [9]; in assay [15]) was greater than 50 µg/mL in each case. In addition, the IC50 (pseudovirus neutralization) is greater than 50 µg/mL in [5], greater than 50 µg/mL in [7], greater than 50 µg/mL in [10] and 6 µg/mL in assay [19].
